From patent US20140017253A1 (ONCOMED PHARMACEUTICALS, published 2014) come the findings set out here.

The Kd is the concentration at which binding is half-saturated.

Experiment [1] addresses T1, recombinant human RSPO3 protein, biotinylated (human, UniProt Q9BXY4 22-272, biotinylated (sites not given)).
T1 sequence: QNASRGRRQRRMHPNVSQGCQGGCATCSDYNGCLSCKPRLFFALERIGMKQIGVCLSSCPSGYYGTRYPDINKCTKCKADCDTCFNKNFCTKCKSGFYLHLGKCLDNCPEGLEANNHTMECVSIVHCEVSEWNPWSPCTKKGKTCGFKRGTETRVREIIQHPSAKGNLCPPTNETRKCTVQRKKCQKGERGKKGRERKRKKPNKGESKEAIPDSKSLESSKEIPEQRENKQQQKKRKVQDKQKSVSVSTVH
Briefly: SPR (Biacore 2000), biotinylated human RSPO3 captured on streptavidin chip, antibody injected 100-0.78 nM. The procedure: The antibodies were serially diluted 2-fold from 100 nM to 0.78 nM in HBS-P (0.01M HEPES pH 7.4, 0.15M NaCl, 0.005% v/v Surfactant P20) and were injected over the chip surface. Kinetic data were collected over time and were fit using the simultaneous global fit equation to yield affinity constants (KD values) for each antibody.
In general terms: In SPR one partner is held on a chip, and binding of the other changes the refractive index at the surface.

Experiment [2] deals with T2, human RSPO3 (recombinant, R&D Systems) (human, UniProt Q9BXY4 22-272).
T2 sequence: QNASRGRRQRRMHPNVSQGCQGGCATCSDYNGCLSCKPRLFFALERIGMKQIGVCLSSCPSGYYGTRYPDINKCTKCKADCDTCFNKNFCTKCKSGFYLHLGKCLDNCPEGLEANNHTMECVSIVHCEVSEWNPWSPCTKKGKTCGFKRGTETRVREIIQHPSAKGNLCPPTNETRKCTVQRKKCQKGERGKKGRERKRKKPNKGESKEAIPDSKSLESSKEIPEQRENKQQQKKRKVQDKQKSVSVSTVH
Briefly: SPR (Biacore 2000), antibody captured by goat anti-human IgG on CM5 chip, human RSPO3 injected 300-37.5 nM. The method, then: The method used was different than described in Example 3. A goat anti-human IgG antibody was coupled to a carboxymethyl-dextran (CM5) SPR chip using standard amine-based chemistry (NHS/EDC) and blocked with ethanolamine. Antibodies (purified antibody or culture supernatant) were diluted to a concentration of 10 μg/ml in HBS-P-BSA (0.01M HEPES pH7.4, 0.15M NaCl, 0.005% v/v Polysorbate 20, 100 μg/ml BSA) and captured onto the chip via the anti-human IgG antibody. […] After each antigen injection 5 μl of 100 mM H₃PO₄ was injected to remove the antigen-antibody complex and a subsequent injection performed. Kinetic data were collected over time and were fit using the simultaneous global fit equation to yield affinity constants (KD values) for each antibody (Table 4).

For experiment [3], the target named is T3, LGR5-Fc fusion protein (human, UniProt O75473 22-564).
T3 construct: range 22-564; Expressed in insect cells with baculovirus, purified on protein A; also called soluble LGR5-Fc; not shown: human Fc
T3 sequence (looked up): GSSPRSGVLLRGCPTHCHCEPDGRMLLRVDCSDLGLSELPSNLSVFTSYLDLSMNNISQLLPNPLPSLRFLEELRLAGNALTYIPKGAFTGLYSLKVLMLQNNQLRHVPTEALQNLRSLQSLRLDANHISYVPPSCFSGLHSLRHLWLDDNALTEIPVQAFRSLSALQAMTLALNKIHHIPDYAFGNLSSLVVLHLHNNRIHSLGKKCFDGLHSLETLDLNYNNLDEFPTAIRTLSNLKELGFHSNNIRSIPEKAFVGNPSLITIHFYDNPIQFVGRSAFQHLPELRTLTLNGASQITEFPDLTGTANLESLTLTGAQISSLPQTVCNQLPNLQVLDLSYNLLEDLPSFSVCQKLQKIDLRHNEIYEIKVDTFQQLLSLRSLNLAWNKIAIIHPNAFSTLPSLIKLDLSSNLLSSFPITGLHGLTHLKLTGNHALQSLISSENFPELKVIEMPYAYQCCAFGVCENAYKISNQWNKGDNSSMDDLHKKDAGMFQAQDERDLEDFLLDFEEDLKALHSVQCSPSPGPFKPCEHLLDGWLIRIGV
The experiment in a line: SPR (Biacore 2000), RSPO-Fc amine-coupled to CM5 chip, soluble LGR5-Fc injected 100-0.78 nM. The method, then:
Binding affinities between RSPO proteins and LGR5 were analyzed by surface plasmon resonance. A soluble LGR5-Fc construct was generated using standard recombinant DNA techniques. Specifically, amino acids 1-564 of human LGR5 were ligated in frame to human Fc and the recombinant LGR5-Fc fusion protein was expressed in insect cells using baculovirus. The LGR5-Fc fusion protein was purified from the insect medium using protein A chromatography. Cleavage of the LGR5 signal sequence results in a mature LGR5-Fc fusion protein containing amino acids 22-564 of LGR5. […] Two-fold dilutions of soluble LGR5-Fc were injected over the chip surface (100 nM to 0.78 nM). Kinetic data were collected over time using a Biacore 2000 system from Biacore Life Sciences (GE Healthcare) and the data were fit using the simultaneous global fit equation to yield affinity constants (KD values) for each RSPO protein (Table 3).

B1: anti-RSPO3 antibody 131R003 (antibody, human IgG2, kappa, V domains shown)
VH: QVQLKQSGPELVKPGASVKISCKASGYTFTDYSIHWVKQNHGKSLDWIGYIYPSNGDSGYNQKFKNRATLTVDTSYSTAYLEVRRLTFEDSAVYYCATYFANYFDYWGQGTTLTVSS
VL: DIVLTQSPASLAVSLGQRATISCKASQSVDYDGDSYMNWYQQKPGQPPKLLIYAASNLESGIPARFSGSGSGTDFTLNIHPVEEEDAATYYCQQSNEDPLTFGAGTKLELKR
notes: Same light chain as 131R002; also called parental 131R003; 131R003 (IgG2)
As to B1, the figures for the dissociation constant (Kd) in experiment [1] and in experiment [2] were 7.3 nM and 1.9 nM, respectively.

B2: 131R003CDR3 variant (antibody, human IgG2, kappa, V domains shown)
VH: QVQLKQSGPELVKPGASVKISCKASGYTFTDYSIHWVKQNHGKSLDWIGYIYPSNGDSGYNQKFKNRATLTVDTSYSTAYLEVRRLTFEDSAVYYCATYFANNFDYWGQGTTLTVSS
VL: DIVLTQSPASLAVSLGQRATISCKASQSVDYDGDSYMNWYQQKPGQPPKLLIYAASNLESGIPARFSGSGSGTDFTLNIHPVEEEDAATYYCQQSNEDPLTFGAGTKLELKR
notes: also called 131R003 CDR3 variant (IgG2); 131R003 Heavy chain - Variant 1
Turning to B2, the Kd in experiment [2] is 1.7 nM.

B3: anti-RSPO3 antibody 131R002 (antibody, human IgG2, kappa, V domains shown)
VH: QVQLQESGPELVKPGASVKISCKASGYTFTDYSIHWVKQNHGKSLDWIGYIYPSNGDSGYNQKFKNRATLTVDTSSSTAYLEVRRLTFEDSAVYYCATYFANYFDYWGQGTTLTVSS
VL: DIVLTQSPASLAVSLGQRATISCKASQSVDYDGDSYMNWYQQKPGQPPKLLIYAASNLESGIPARFSGSGSGTDFTLNIHPVEEEDAATYYCQQSNEDPLTFGAGTKLELKR
notes: Same light chain as 131R003; also called 131R002 (IgG2)
Regarding B3, the dissociation constant (Kd) in experiment [1] is 8.2 nM; in experiment [2] it was 1.3 nM.

B4: RSPO4-Fc fusion protein (Fc fusion, not shown: a dimerising Fc or GST; small tags and cut ends)
chain: NRRKKQVGTGLGGNCTGCIICSEENGCSTCQQRLFLFIRREGIRQYGKCLHDCPPGYFGIRGQEVNRCKKCGATCESCFSQDFCIRCKRQFYLYKGKCLPTCPPGTLAHQNTRECQGECELGPWGGWSPCTHNGKTCGSAWGLESRVREAGRAGHEEAATCQVLSESRKCPIQRPCPGERSPGQKKGRKDRRPRKDRKLDRRLDVRPRQPGLQP
notes: Full-length human RSPO4 ligated in-frame to a human Fc region, expressed in insect cells
B4: in experiment [3], the Kd came out at 73 nM.

B5: humanized anti-RSPO3 antibody h131R011 (antibody, human IgG2, kappa, V domains shown)
VH: QVQLVQSGAEVKKPGASVKVSCKASGYTFTDYSIHWVRQAPGQGLEWIGYIYPSNGDSGYNQKFKNRVTMTRDTSTSTAYMELSRLRSEDTAVYYCATYFANNFDYWGQGTTLTVSS
VL: DIQMTQSPSSLSASVGDRVTITCKASQSVDYDGDSYMNWYQQKPGKAPKLLIYAASNLESGVPSRFSGSGSGTDFTLTISPVQAEDFATYYCQQSNEDPLTFGAGTKLELKR
notes: IgG2; also called h131R011 (IgG2)
On to B5, for which the Kd in experiment [2] stood at 0.686 nM.

B6: RSPO1-Fc fusion protein (Fc fusion)
chain: SRGIKGKRQRRISAEGSQACAKGCELCSEVNGCLKCSPKLFILLERNDIRQVGVCLPSCPPGYFDARNPDMNKCIKCKIEHCEACFSHNFCTKCKEGLYLHKGRCYPACPEGSSAANGTMECSSPAQCEMSEWSPWGPCSKKQQLCGFRRGSEERTRRVLHAPVGDHAACSDTKETRRCTVRRVPCPEGQKRRKGGQGRRENANRNLARKESKEAGAGSRRRKGQQQQQQQGTVGPLTSAGPA
notes: not shown: human Fc region
For the molecule B6, the dissociation constant (Kd) in experiment [3] came to 110 nM.

B7: RSPO2-Fc fusion protein (Fc fusion)
chain: QGNRWRRSKRASYVSNPICKGCLSCSKDNGCSRCQQKLFFFLRREGMRQYGECLHSCPSGYYGHRAPDMNRCARCRIENCDSCFSKDFCTKCKVGFYLHRGRCFDECPDGFAPLEETMECVEGCEVGHWSEWGTCSRNNRTCGFKWGLETRTRQIVKKPVKDTIPCPTIAESRRCKMTMRHCPGGKRTPKAKEKRNKKKKRKLIERAQEQHSVFLATDRANQ
notes: Full-length human RSPO2 ligated in-frame to a human Fc region, expressed in insect cells; not shown: human Fc region
In turn, B7 registered a dissociation constant Kd in experiment [3] of 14 nM.

B8: RSPO3-Fc fusion protein (Fc fusion)
chain: QNASRGRRQRRMHPNVSQGCQGGCATCSDYNGCLSCKPRLFFALERIGMKQIGVCLSSCPSGYYGTRYPDINKCTKCKADCDTCFNKNFCTKCKSGFYLHLGKCLDNCPEGLEANNHTMECVSIVHCEVSEWNPWSPCTKKGKTCGFKRGTETRVREIIQHPSAKGNLCPPTNETRKCTVQRKKCQKGERGKKGRERKRKKPNKGESKEAIPDSKSLESSKEIPEQRENKQQQKKRKVQDKQKSVSVSTVH
notes: Full-length human RSPO3 ligated in-frame to a human Fc region, expressed in insect cells; not shown: human Fc region
In turn, B8 gave a Kd in experiment [3] of less than 1 nM.

B9: humanized anti-RSPO3 antibody h131R007 (antibody, human IgG2, kappa)
heavy: QVQLVQSGAEVKKPGASVKVSCKASGYTFTDYSIHWVRQAPGQGLEWIGYIYPSNGDSGYNQKFKNRVTMTRDTSTSTAYMELSRLRSEDTAVYYCATYFANNFDYWGQGTTLTVSSASTKGPSVFPLAPCSRSTSESTAALGCLVKDYFPEPVTVSWNSGALTSGVHTFPAVLQSSGLYSLSSVVTVPSSNFGTQTYTCNVDHKPSNTKVDKTVERKCCVECPPCPAPPVAGPSVFLFPPKPKDTLMISRTPEVTCVVVDVSHEDPEVQFNWYVDGVEVHNAKTKPREEQFNSTFRVVSVLTVVHQDWLNGKEYKCKVSNKGLPAPIEKTISKTKGQPREPQVYTLPPSREEMTKNQVSLTCLVKGFYPSDIAVEWESNGQPENNYKTTPPMLDSDGSFFLYSKLTVDKSRWQQGNVFSCSVMHEALHNHYTQKSLSLSPGK
light: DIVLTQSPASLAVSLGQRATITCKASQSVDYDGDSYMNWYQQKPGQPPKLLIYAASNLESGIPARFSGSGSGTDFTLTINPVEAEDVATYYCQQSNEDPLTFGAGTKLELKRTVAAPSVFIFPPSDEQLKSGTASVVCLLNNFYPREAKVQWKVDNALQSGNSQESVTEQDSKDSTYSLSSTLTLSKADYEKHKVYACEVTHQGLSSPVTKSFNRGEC
notes: IgG2; also called h131R005/131R007; h131R005
As to B9, the dissociation constant (Kd) in experiment [2] amounted to 0.654 nM.
